The values that follow come from the supplement of paper PMC7125110.

First the molecules themselves.
B1: glmS ribozyme (parent)
chain: AUAAAAGCGCCAGAACUACAGAAAUGUAGUUGACGAGGAGGAGGUUUAUCGAAUUUUCGGCGGAUGCCUCCAAA

± gives the standard error. For some assays here: Variants at the floor of the assay were thinned out.

Holding throughout (conditions): with glucosamine-6-phosphate
Data set [1] covers variants of B1. In words: kcat; higher = faster cleavage; RNA array. In short, it runs like this:
(§1)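 Sequenced MiSeq chips were the platform: E. coli RNA polymerase transcribed barcoded ribozyme variants on them in situ, and a hybridised Cy3 probe tracked these at 37 °C. After glucosamine-6-phosphate (40 μM to 10 mM) in HEPES/KCl/Mg(OAc)2 buffer was flowed in, tiles were imaged over ~14 h. Signals normalised to baseline and to non-cleaving reference variants were reduced to per-tile medians and fit to one- or two-exponential decays to obtain kobs. kcat and KM were derived through weighted Michaelis–Menten fits across concentrations.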

Variants of B1 are the subject of data set [2]. Kind of data set: self-cleavage kobs at 640 uM GlcN6P; higher = faster cleavage; RNA array. In a few lines:
as §1

Data set [3] covers variants of B1. Kind of data set: self-cleavage kobs at 2500 uM GlcN6P; higher = faster cleavage; RNA array. In short, it runs like this: as §1
Data set [4] covers variants of B1. In words: self-cleavage kobs at 10000 uM GlcN6P; higher = faster cleavage; RNA array. In short, it runs like this: as §1
The variants in data set [5] derive from B1. Kind of data set: self-cleavage kobs at 160 uM GlcN6P; higher = faster cleavage; RNA array. In a few lines:
as §1

Data set [6] covers variants of B1. In words: KM; higher = weaker cofactor use; RNA array. In short, it runs like this: as §1
Variants of B1 are the subject of data set [7]. Kind of data set: self-cleavage kobs at 40 uM GlcN6P; higher = faster cleavage; RNA array. In a few lines:
as §1

As a reminder, the kcat is the maximal rate divided by the concentration of active sites. For the variant U46G A48U, in the data set with glucosamine-6-phosphate [1], the catalytic constant (kcat) was determined as 0.00014 ± 2.4e-05 s⁻¹. Moreover, the “self-cleavage kobs at 640 uM GlcN6P” value in the data set with glucosamine-6-phosphate [2] is 3.53e-05 ± 1.4e-05 s⁻¹. Besides, the “self-cleavage kobs at 2500 uM GlcN6P” value in the data set with glucosamine-6-phosphate [3] was determined as 0.000128 ± 2.5e-05 s⁻¹. Also, in the data set with glucosamine-6-phosphate [4], the “self-cleavage kobs at 10000 uM GlcN6P” value was 0.000117 ± 1.6e-05 s⁻¹.
In the case of A48U U65A, in the data set with glucosamine-6-phosphate [1], the catalytic constant (kcat) is 5.33e-05 ± 4.6e-06 s⁻¹. Moreover, the “self-cleavage kobs at 160 uM GlcN6P” value with glucosamine-6-phosphate [5] was less than 1e-05 s⁻¹.
As to C70A C71G, the turnover number (kcat) in the data set with glucosamine-6-phosphate [1] was found to be 5.62e-05 ± 4.3e-06 s⁻¹. In the data set with glucosamine-6-phosphate [5], the “self-cleavage kobs at 160 uM GlcN6P” value worked out at 3.29e-05 ± 1.1e-05 s⁻¹. The “self-cleavage kobs at 640 uM GlcN6P” value with glucosamine-6-phosphate [2] amounted to 5.81e-05 ± 7.8e-06 s⁻¹. For the same variant, in the data set with glucosamine-6-phosphate [3], the “self-cleavage kobs at 2500 uM GlcN6P” value was found to be 5.08e-05 ± 7.8e-06 s⁻¹. Also, the “self-cleavage kobs at 10000 uM GlcN6P” value with glucosamine-6-phosphate [4] worked out at 5.37e-05 ± 7.8e-06 s⁻¹.
In the case of G38A A52C C70A, the turnover number (kcat) with glucosamine-6-phosphate [1] was found to be 1.15e-05 ± 3.5e-06 s⁻¹.
Broadly, the KM is the substrate concentration at which the rate is half of its maximum. For A39C G66A, the kcat with glucosamine-6-phosphate [1] was found to be 0.004 ± 0.00092 s⁻¹. Further, in the data set with glucosamine-6-phosphate [6], the KM amounted to 2860 ± 890 µM. Besides, in the data set with glucosamine-6-phosphate [7], the “self-cleavage kobs at 40 uM GlcN6P” value came out at 7.75e-05 ± 1.2e-05 s⁻¹. In the data set with glucosamine-6-phosphate [5], the “self-cleavage kobs at 160 uM GlcN6P” value amounted to 0.000194 ± 3.3e-05 s⁻¹. The “self-cleavage kobs at 640 uM GlcN6P” value in the data set with glucosamine-6-phosphate [2] worked out at 0.000666 ± 8.8e-05 s⁻¹. In addition, the “self-cleavage kobs at 2500 uM GlcN6P” value with glucosamine-6-phosphate [3] amounted to 0.00181 ± 0.00027 s⁻¹. Also, the “self-cleavage kobs at 10000 uM GlcN6P” value with glucosamine-6-phosphate [4] is 0.0033 ± 0.00049 s⁻¹.
For A14U U54A, in the data set with glucosamine-6-phosphate [1], the turnover number (kcat) was determined as 0.00906 ± 0.0023 s⁻¹. Further, in the data set with glucosamine-6-phosphate [6], the Michaelis constant (KM) was determined as 1560 ± 560 µM. For the same variant, in the data set with glucosamine-6-phosphate [7], the “self-cleavage kobs at 40 uM GlcN6P” value was found to be 0.000324 ± 5.9e-05 s⁻¹. The “self-cleavage kobs at 160 uM GlcN6P” value with glucosamine-6-phosphate [5] amounted to 0.000834 ± 0.00014 s⁻¹. Also, in the data set with glucosamine-6-phosphate [2], the “self-cleavage kobs at 640 uM GlcN6P” value was determined as 0.00228 ± 0.00033 s⁻¹. For the same variant, the “self-cleavage kobs at 2500 uM GlcN6P” value with glucosamine-6-phosphate [3] worked out at 0.00565 ± 0.00092 s⁻¹. The “self-cleavage kobs at 10000 uM GlcN6P” value with glucosamine-6-phosphate [4] was 0.00909 ± 0.002 s⁻¹.
On to C10G C67U, for which the kcat in the data set with glucosamine-6-phosphate [1] is less than 1e-05 s⁻¹. Also, the “self-cleavage kobs at 40 uM GlcN6P” value in the data set with glucosamine-6-phosphate [7] was less than 1e-05 s⁻¹.
As for C16A G40A, in the data set with glucosamine-6-phosphate [1], the catalytic constant (kcat) is 0.000202 ± 6.3e-05 s⁻¹. For the same variant, in the data set with glucosamine-6-phosphate [3], the “self-cleavage kobs at 2500 uM GlcN6P” value came to 0.000155 ± 2.1e-05 s⁻¹. The “self-cleavage kobs at 10000 uM GlcN6P” value with glucosamine-6-phosphate [4] turned out to be 0.000154 ± 2.9e-05 s⁻¹.
Regarding U30G G66U, in the data set with glucosamine-6-phosphate [1], the turnover number (kcat) turned out to be 0.000295 ± 2e-05 s⁻¹. Further, the KM with glucosamine-6-phosphate [6] came to 1760 ± 290 µM. Further, in the data set with glucosamine-6-phosphate [2], the “self-cleavage kobs at 640 uM GlcN6P” value was 8.02e-05 ± 1.2e-05 s⁻¹. For the same variant, the “self-cleavage kobs at 2500 uM GlcN6P” value in the data set with glucosamine-6-phosphate [3] worked out at 0.000147 ± 3.5e-05 s⁻¹. Besides, in the data set with glucosamine-6-phosphate [4], the “self-cleavage kobs at 10000 uM GlcN6P” value is 0.000256 ± 2.4e-05 s⁻¹.
With U30C G62A, the catalytic constant (kcat) with glucosamine-6-phosphate [1] was less than 1e-05 s⁻¹. In addition, the “self-cleavage kobs at 640 uM GlcN6P” value in the data set with glucosamine-6-phosphate [2] is less than 1e-05 s⁻¹.
Regarding U65G G66U, in the data set with glucosamine-6-phosphate [1], the kcat stood at 0.00147 ± 0.00011 s⁻¹. Moreover, the Michaelis constant (KM) with glucosamine-6-phosphate [6] is 2310 ± 320 µM. Also, the “self-cleavage kobs at 40 uM GlcN6P” value with glucosamine-6-phosphate [7] is 1.83e-05 ± 8e-06 s⁻¹. In addition, the “self-cleavage kobs at 160 uM GlcN6P” value in the data set with glucosamine-6-phosphate [5] came out at 9.38e-05 ± 2.2e-05 s⁻¹. In addition, the “self-cleavage kobs at 640 uM GlcN6P” value with glucosamine-6-phosphate [2] worked out at 0.000342 ± 5.3e-05 s⁻¹. Moreover, the “self-cleavage kobs at 2500 uM GlcN6P” value with glucosamine-6-phosphate [3] worked out at 0.000789 ± 0.0001 s⁻¹. In the data set with glucosamine-6-phosphate [4], the “self-cleavage kobs at 10000 uM GlcN6P” value worked out at 0.00117 ± 0.00012 s⁻¹.
U55C C70U: the catalytic constant (kcat) with glucosamine-6-phosphate [1] worked out at 0.00171 ± 0.00048 s⁻¹. Also, the KM with glucosamine-6-phosphate [6] is 5960 ± 3000 µM. Also, the “self-cleavage kobs at 40 uM GlcN6P” value with glucosamine-6-phosphate [7] came to 2.44e-05 ± 9e-06 s⁻¹. Besides, the “self-cleavage kobs at 160 uM GlcN6P” value with glucosamine-6-phosphate [5] was determined as 7.16e-05 ± 3e-05 s⁻¹. The “self-cleavage kobs at 640 uM GlcN6P” value with glucosamine-6-phosphate [2] was 0.000172 ± 4.7e-05 s⁻¹. In addition, the “self-cleavage kobs at 2500 uM GlcN6P” value with glucosamine-6-phosphate [3] was 0.000413 ± 8.4e-05 s⁻¹. Besides, the “self-cleavage kobs at 10000 uM GlcN6P” value with glucosamine-6-phosphate [4] was found to be 0.00111 ± 0.00012 s⁻¹.
For A15C G29U, in the data set with glucosamine-6-phosphate [1], the kcat stood at 0.00341 ± 0.00015 s⁻¹. The Michaelis-Menten constant (KM) in the data set with glucosamine-6-phosphate [6] amounted to 2200 ± 140 µM. For the same variant, the “self-cleavage kobs at 40 uM GlcN6P” value with glucosamine-6-phosphate [7] was 6.18e-05 ± 8.8e-06 s⁻¹. For the same variant, in the data set with glucosamine-6-phosphate [2], the “self-cleavage kobs at 640 uM GlcN6P” value was 0.000757 ± 0.00012 s⁻¹. In addition, the “self-cleavage kobs at 2500 uM GlcN6P” value with glucosamine-6-phosphate [3] came out at 0.00169 ± 0.00042 s⁻¹. In addition, in the data set with glucosamine-6-phosphate [4], the “self-cleavage kobs at 10000 uM GlcN6P” value was 0.00285 ± 0.00042 s⁻¹.
On to G37A G59U C68G, for which the kcat with glucosamine-6-phosphate [1] is less than 1e-05 s⁻¹.
Regarding G38A U54G, the kcat with glucosamine-6-phosphate [1] is less than 1e-05 s⁻¹. The “self-cleavage kobs at 40 uM GlcN6P” value in the data set with glucosamine-6-phosphate [7] was less than 1e-05 s⁻¹.
Take C58G C61G: in the data set with glucosamine-6-phosphate [1], the kcat is 3.21e-05 ± 1e-05 s⁻¹. Also, the “self-cleavage kobs at 640 uM GlcN6P” value with glucosamine-6-phosphate [2] was 5.63e-05 ± 2.4e-05 s⁻¹.
As for U47C A48U, the kcat in the data set with glucosamine-6-phosphate [1] was determined as 0.000264 ± 3.4e-05 s⁻¹. Also, in the data set with glucosamine-6-phosphate [6], the Michaelis-Menten constant (KM) is 1270 ± 340 µM. For the same variant, in the data set with glucosamine-6-phosphate [2], the “self-cleavage kobs at 640 uM GlcN6P” value was 9.41e-05 ± 2.5e-05 s⁻¹. For the same variant, in the data set with glucosamine-6-phosphate [3], the “self-cleavage kobs at 2500 uM GlcN6P” value was 0.000174 ± 3.2e-05 s⁻¹.
On to U57G C68A, for which the catalytic constant (kcat) with glucosamine-6-phosphate [1] came out at 2.56e-05 ± 8.2e-06 s⁻¹. The “self-cleavage kobs at 640 uM GlcN6P” value in the data set with glucosamine-6-phosphate [2] came to 3.37e-05 ± 1.4e-05 s⁻¹.
Consider A33U C71A, for which the kcat with glucosamine-6-phosphate [1] is 4.74e-05 ± 6.5e-07 s⁻¹. Also, the KM with glucosamine-6-phosphate [6] was 919 ± 65 µM. Further, in the data set with glucosamine-6-phosphate [7], the “self-cleavage kobs at 40 uM GlcN6P” value is less than 1e-05 s⁻¹. Moreover, the “self-cleavage kobs at 2500 uM GlcN6P” value in the data set with glucosamine-6-phosphate [3] was found to be 3.52e-05 ± 8.5e-06 s⁻¹. Further, the “self-cleavage kobs at 10000 uM GlcN6P” value in the data set with glucosamine-6-phosphate [4] is 4.32e-05 ± 6.2e-06 s⁻¹.
